Test results reported in patent US20230340155A1 (published 2023).

Tests used:
cyno PD-1 (SPR analyte) = target: T1, cyno PD-1 (SPR analyte) (cynomolgus monkey); assay: SPR, ProteOn XPR36, mAb captured by anti-human IgG Fc, cyno PD-1 as analyte, 25 C
T1 construct: Construct of the soluble analyte is not described; also called cynomolgus PD-1
Experimental: Affinity measurements were performed using a ProteOn XPR36 system (BioRad). […] Approximately 5000 RU (response units) of mAbs were immobilized. The kinetic experiments were performed at 25° C. in running buffer (DPBS+0.01% P20+100 µg/mL BSA). To perform kinetic experiments, 200 RU of mAbs were captured followed by injections of analytes (human and cyno PD-1) at concentrations ranging from 1.563 nM to 400 nM (in a 4-fold serial dilution). The association phase was monitored for 3 minutes at 50 µL/min, then followed by 10 or 15 minutes of buffer flow (dissociation phase). The chip surface was regenerated with two 18 second pulses of 100 mM H₃PO₄ (Sigma, Cat#7961) at 100 µL/min.
The collected data were processed using ProteOn Manager software. First, the data was corrected for background using inter-spots. Then, double reference subtraction of the data was performed by using the buffer injection for analyte injections. The kinetic analysis of the data was performed using a Langmuir 1:1 binding model. The result for each mAb was reported in the format of ka (On-rate), kd (Off-rate) and KD (equilibrium dissociation constant).
Affinity of the antibodies to human and cyno PD-1 was measured using SPR as described in Example 1.

[1] = target: T2, biotinylated Human PD-1/PDCD1 (Acro Biosystems, Cat# PD1-H82E4) (human, UniProt Q15116 25-167, biotinylated); assay: Fab ELISA, Fab captured by anti-Fd(CH1) antibody, 5 nM biotinylated human PD-1, streptavidin-HRP chemiluminescence
T2 construct: Bought reagent; whole mature entry named
T2 sequence (Q15116 25-167 limits assumed): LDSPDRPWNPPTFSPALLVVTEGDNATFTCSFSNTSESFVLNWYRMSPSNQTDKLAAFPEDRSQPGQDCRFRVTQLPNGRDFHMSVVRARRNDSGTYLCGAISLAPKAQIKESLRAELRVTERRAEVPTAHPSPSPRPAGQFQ
Experimental: For follow-up screening, plasmid DNA was prepared from overnight culture of the TG-1 Escherichia coli cells and the pIX gene was excised by NheI/SpeI digestion. After ligation, the DNA was transformed into TG-1 cells and grown on LB/Agar plates overnight. The next day, colonies were picked, grown overnight, and the cultures used for (i) colony sequencing of the V- regions, and (ii) induction of Fab production. For Fab production, the overnight culture was diluted 100 folds in new media and grown for 5-6 hours at 37° C. Fab production was induced by the addition of fresh media containing IPTG and the cultures were grown overnight at 30° C. The following day, the cultures were spun down and the supernatants, containing the soluble Fab proteins, were used for Fab ELISA. For the ELISA, the soluble Fab proteins were captured onto plates by a polyclonal anti-Fd(CH1) antibody. After washing and blocking, biotinylated Human PD-1/PDCD1 was added at 5 nM concentration. […] The biotinylated human PD-1 was detected by HRP-conjugated streptavidin with chemiluminescence measured in a plate reader.

B1: PD1B1085 (antibody, human IgG1, kappa, V domains shown)
VH: QVQLVQSGSELKKPGASVKVSCKASGYTFTDYSMHWVRQAPGQGLEWMGWINIETGYPTYAQGFTGRFVFSLDTSVSTAYLQISSLKAEDTAVYFCARDYYGTYFYAMDYWGQGTLVTVSS
VL: EIVLTQSPATLSLSPGERATLSCTASSSVSSSYLHWYQQKPGLAPRLLIYSTSNLASGIPDRFSGSGSGTDYTLTISRLEPEDFAVYYCHQYHRSPLTFGQGTKLEIKR
notes: IgG1; also called PD1H585/PD1L469; E57Y (VH) variant of PD1B878
Kd (cyno PD-1 (SPR analyte)): 6.45 nM | koff (cyno PD-1 (SPR analyte)): 0.00129 s⁻¹ | kon (cyno PD-1 (SPR analyte)): 200000 M⁻¹ s⁻¹

B2: PD1B878 Fab variant with heavy chain PD1H585 (E57Y) (Fab, V domains shown)
VH: QVQLVQSGSELKKPGASVKVSCKASGYTFTDYSMHWVRQAPGQGLEWMGWINIETGYPTYAQGFTGRFVFSLDTSVSTAYLQISSLKAEDTAVYFCARDYYGTYFYAMDYWGQGTLVTVSS
VL: EIVLTQSPATLSLSPGERATLSCTASSSVSSSYLHWYQQKPGLAPRLLIYSTSNLASGIPDRFSGSGSGTDYTLTISRLEPEDFAVYYCHQYHRSPLTFGQGTKLEIK
notes: Soluble Fab of the non-combinatorial CDR scan
fold change in ELISA binding versus the parental Fab [1]: 10 fold

B3: PD1B1092 (antibody, human IgG1, kappa, V domains shown)
VH: QVQLVQSGSELKKPGASVKVSCKASGYTFTDYSMHWVRQAPGQGLEWMGWINIETGWPTYAQGFTGRFVFSLDTSVSTAYLQISSLKAEDTAVYFCARDYYGTYFYAMDYWGQGTLVTVSS
VL: EIVLTQSPATLSLSPGERATLSCTASSSFSSSYLHWYQQKPGLAPRLLIYSTSNLASGIPDRFSGSGSGTDYTLTISRLEPEDFAVYYCHQYHRSPLTFGQGTKLEIKR
notes: IgG1; also called PD1H587/PD1L651; E57W (VH), V29F (VL) variant of PD1B878
Kd (cyno PD-1 (SPR analyte)): 3.18 nM | koff (cyno PD-1 (SPR analyte)): 0.000411 s⁻¹ | kon (cyno PD-1 (SPR analyte)): 129000 M⁻¹ s⁻¹

B4: PD1B1086 (antibody, human IgG1, kappa, V domains shown)
VH: QVQLVQSGSELKKPGASVKVSCKASGYTFTDYSMHWVRQAPGQGLEWMGWINIETGHPTYAQGFTGRFVFSLDTSVSTAYLQISSLKAEDTAVYFCARDYYGTYFYAMDYWGQGTLVTVSS
VL: EIVLTQSPATLSLSPGERATLSCTASSSVSSSYLHWYQQKPGLAPRLLIYSTSNLASGIPDRFSGSGSGTDYTLTISRLEPEDFAVYYCHQYHRSPLTFGQGTKLEIKR
notes: IgG1; also called PD1H586/PD1L469; E57H (VH) variant of PD1B878
Kd (cyno PD-1 (SPR analyte)): 31.8 nM | koff (cyno PD-1 (SPR analyte)): 0.00544 s⁻¹ | kon (cyno PD-1 (SPR analyte)): 171000 M⁻¹ s⁻¹

B5: PD1B878 Fab variant with heavy chain PD1H586 (E57H) (Fab, V domains shown)
VH: QVQLVQSGSELKKPGASVKVSCKASGYTFTDYSMHWVRQAPGQGLEWMGWINIETGHPTYAQGFTGRFVFSLDTSVSTAYLQISSLKAEDTAVYFCARDYYGTYFYAMDYWGQGTLVTVSS
VL: EIVLTQSPATLSLSPGERATLSCTASSSVSSSYLHWYQQKPGLAPRLLIYSTSNLASGIPDRFSGSGSGTDYTLTISRLEPEDFAVYYCHQYHRSPLTFGQGTKLEIK
notes: as for B2
fold change in ELISA binding versus the parental Fab [1]: 10 fold

B6: PD1B1091 (antibody, human IgG1, kappa, V domains shown)
VH: QVQLVQSGSELKKPGASVKVSCKASGYTFTDYSMHWVRQAPGQGLEWMGWINIETGHPTYAQGFTGRFVFSLDTSVSTAYLQISSLKAEDTAVYFCARDYYGTYFYAMDYWGQGTLVTVSS
VL: EIVLTQSPATLSLSPGERATLSCTASSSFSSSYLHWYQQKPGLAPRLLIYSTSNLASGIPDRFSGSGSGTDYTLTISRLEPEDFAVYYCHQYHRSPLTFGQGTKLEIKR
notes: IgG1; also called PD1H586/PD1L651; E57H (VH), V29F (VL) variant of PD1B878
Kd (cyno PD-1 (SPR analyte)): 9.32 nM | koff (cyno PD-1 (SPR analyte)): 0.000924 s⁻¹ | kon (cyno PD-1 (SPR analyte)): 99100 M⁻¹ s⁻¹

B7: PD1B1094 (antibody, human IgG1, kappa, V domains shown)
VH: QVQLVQSGSELKKPGASVKVSCKASGYTFTDYSMHWVRQAPGQGLEWMGWINIETGHPTYAQGFTGRFVFSLDTSVSTAYLQISSLKAEDTAVYFCARDYYGTYFYAMDYWGQGTLVTVSS
VL: EIVLTQSPATLSLSPGERATLSCTASSSVPSSYLHWYQQKPGLAPRLLIYSTSNLASGIPDRFSGSGSGTDYTLTISRLEPEDFAVYYCHQYHRSPLTFGQGTKLEIKR
notes: IgG1; also called PD1H586/PD1L652; E57H (VH), S30P (VL) variant of PD1B878
Kd (cyno PD-1 (SPR analyte)): 12 nM | koff (cyno PD-1 (SPR analyte)): 0.00162 s⁻¹ | kon (cyno PD-1 (SPR analyte)): 135000 M⁻¹ s⁻¹

B8: PD1B1089 (antibody, human IgG1, kappa, V domains shown)
VH: QVQLVQSGSELKKPGASVKVSCKASGYTFTDYSMHWVRQAPGQGLEWMGWINIETGEPTYAQGFTGRFVFSLDTSVSTAYLQISSLKAEDTAVYFCARDYYGTYFYAMDYWGQGTLVTVSS
VL: EIVLTQSPATLSLSPGERATLSCTASSSVPSSYLHWYQQKPGLAPRLLIYSTSNLASGIPDRFSGSGSGTDYTLTISRLEPEDFAVYYCHQYHRSPLTFGQGTKLEIKR
notes: IgG1; also called PD1H405/PD1L652; S30P (VL) variant of PD1B878
Kd (cyno PD-1 (SPR analyte)): 90 nM | koff (cyno PD-1 (SPR analyte)): 0.00839 s⁻¹ | kon (cyno PD-1 (SPR analyte)): 93200 M⁻¹ s⁻¹

B9: PD1B1095 (antibody, human IgG1, kappa, V domains shown)
VH: QVQLVQSGSELKKPGASVKVSCKASGYTFTDYSMHWVRQAPGQGLEWMGWINIETGWPTYAQGFTGRFVFSLDTSVSTAYLQISSLKAEDTAVYFCARDYYGTYFYAMDYWGQGTLVTVSS
VL: EIVLTQSPATLSLSPGERATLSCTASSSVPSSYLHWYQQKPGLAPRLLIYSTSNLASGIPDRFSGSGSGTDYTLTISRLEPEDFAVYYCHQYHRSPLTFGQGTKLEIKR
notes: IgG1; also called PD1H587/PD1L652; E57W (VH), S30P (VL) variant of PD1B878
Kd (cyno PD-1 (SPR analyte)): 4.23 nM | koff (cyno PD-1 (SPR analyte)): 0.000781 s⁻¹ | kon (cyno PD-1 (SPR analyte)): 185000 M⁻¹ s⁻¹

B10: PD1B878 Fab variant with heavy chain PD1H587 (E57W) (Fab, V domains shown)
VH: QVQLVQSGSELKKPGASVKVSCKASGYTFTDYSMHWVRQAPGQGLEWMGWINIETGWPTYAQGFTGRFVFSLDTSVSTAYLQISSLKAEDTAVYFCARDYYGTYFYAMDYWGQGTLVTVSS
VL: EIVLTQSPATLSLSPGERATLSCTASSSVSSSYLHWYQQKPGLAPRLLIYSTSNLASGIPDRFSGSGSGTDYTLTISRLEPEDFAVYYCHQYHRSPLTFGQGTKLEIK
notes: as for B2
fold change in ELISA binding versus the parental Fab [1]: 10 fold

B11: PD1B1093 (antibody, human IgG1, kappa, V domains shown)
VH: QVQLVQSGSELKKPGASVKVSCKASGYTFTDYSMHWVRQAPGQGLEWMGWINIETGYPTYAQGFTGRFVFSLDTSVSTAYLQISSLKAEDTAVYFCARDYYGTYFYAMDYWGQGTLVTVSS
VL: EIVLTQSPATLSLSPGERATLSCTASSSVPSSYLHWYQQKPGLAPRLLIYSTSNLASGIPDRFSGSGSGTDYTLTISRLEPEDFAVYYCHQYHRSPLTFGQGTKLEIKR
notes: IgG1; also called PD1H585/PD1L652; E57Y (VH), S30P (VL) variant of PD1B878
Kd (cyno PD-1 (SPR analyte)): 2.18 nM | koff (cyno PD-1 (SPR analyte)): 0.000368 s⁻¹ | kon (cyno PD-1 (SPR analyte)): 169000 M⁻¹ s⁻¹

B12: PD1B1088 (antibody, human IgG1, kappa, V domains shown)
VH: QVQLVQSGSELKKPGASVKVSCKASGYTFTDYSMHWVRQAPGQGLEWMGWINIETGEPTYAQGFTGRFVFSLDTSVSTAYLQISSLKAEDTAVYFCARDYYGTYFYAMDYWGQGTLVTVSS
VL: EIVLTQSPATLSLSPGERATLSCTASSSFSSSYLHWYQQKPGLAPRLLIYSTSNLASGIPDRFSGSGSGTDYTLTISRLEPEDFAVYYCHQYHRSPLTFGQGTKLEIKR
notes: IgG1; also called PD1H405/PD1L651; V29F (VL) variant of PD1B878
Kd (cyno PD-1 (SPR analyte)): 72.4 nM | koff (cyno PD-1 (SPR analyte)): 0.00479 s⁻¹ | kon (cyno PD-1 (SPR analyte)): 66100 M⁻¹ s⁻¹

B13: PD1B1087 (antibody, human IgG1, kappa, V domains shown)
VH: QVQLVQSGSELKKPGASVKVSCKASGYTFTDYSMHWVRQAPGQGLEWMGWINIETGWPTYAQGFTGRFVFSLDTSVSTAYLQISSLKAEDTAVYFCARDYYGTYFYAMDYWGQGTLVTVSS
VL: EIVLTQSPATLSLSPGERATLSCTASSSVSSSYLHWYQQKPGLAPRLLIYSTSNLASGIPDRFSGSGSGTDYTLTISRLEPEDFAVYYCHQYHRSPLTFGQGTKLEIKR
notes: IgG1; also called PD1H587/PD1L469; E57W (VH) variant of PD1B878
Kd (cyno PD-1 (SPR analyte)): 11.6 nM | koff (cyno PD-1 (SPR analyte)): 0.00247 s⁻¹ | kon (cyno PD-1 (SPR analyte)): 212000 M⁻¹ s⁻¹

B14: PD1B1090 (antibody, human IgG1, kappa, V domains shown)
VH: QVQLVQSGSELKKPGASVKVSCKASGYTFTDYSMHWVRQAPGQGLEWMGWINIETGYPTYAQGFTGRFVFSLDTSVSTAYLQISSLKAEDTAVYFCARDYYGTYFYAMDYWGQGTLVTVSS
VL: EIVLTQSPATLSLSPGERATLSCTASSSFSSSYLHWYQQKPGLAPRLLIYSTSNLASGIPDRFSGSGSGTDYTLTISRLEPEDFAVYYCHQYHRSPLTFGQGTKLEIKR
notes: IgG1; also called PD1H585/PD1L651; E57Y (VH), V29F (VL) variant of PD1B878
Kd (cyno PD-1 (SPR analyte)): 1.43 nM | koff (cyno PD-1 (SPR analyte)): 0.000185 s⁻¹ | kon (cyno PD-1 (SPR analyte)): 130000 M⁻¹ s⁻¹

B15: PD1B878 Fab variant with light chain PD1L651 (V29F) (Fab, V domains shown)
VH: QVQLVQSGSELKKPGASVKVSCKASGYTFTDYSMHWVRQAPGQGLEWMGWINIETGEPTYAQGFTGRFVFSLDTSVSTAYLQISSLKAEDTAVYFCARDYYGTYFYAMDYWGQGTLVTVSS
VL: EIVLTQSPATLSLSPGERATLSCTASSSFSSSYLHWYQQKPGLAPRLLIYSTSNLASGIPDRFSGSGSGTDYTLTISRLEPEDFAVYYCHQYHRSPLTFGQGTKLEIK
notes: as for B2
fold change in ELISA binding versus the parental Fab [1]: 10 fold
